According to patent US6555340:

Experiments:
[1] = molecular target: cellular RAGE on human cells (HUVEC, Molt-4 cells, PBMC, Jurkat cells) (human) (UniProt Q15109); test: cell-based or functional assay
[2] = molecular target: RAGE on cultured bovine aortic endothelial cells (BAEC RAGE) (bovine) (UniProt Q28173); test: binding to endothelial cells in culture wells
[3] = molecular target: purified soluble human RAGE (sRAGE), prepared from a baculovirus expression system (human) (UniProt Q15109); test: binding to immobilised RAGE in wells
[4] = molecular target: RAGE on macrophages / macrophage-like cultured BV2 cells (MP RAGE) (UniProt Q62151); test: binding to macrophages in culture wells
[5] = molecular target: cellular RAGE on human cells (HUVEC, Molt-4 cells, PBMC, Jurkat cells) (human, UniProt Q15109 23-404); test: cell-based or functional assay
[6] = molecular target: T1, purified soluble human RAGE (sRAGE), prepared from a baculovirus expression system (human, UniProt Q15109 23-342); test: elution from RAGE-Affi-gel resin; radioligand binding assay
T1 construct: extracellular domain; Adsorbed to plastic wells at 5 µg/well or to Affi-gel resin; also called soluble RAGE; human soluble RAGE
Excerpt: Isolation and purification of EN-RAGE. Bovine lung acetone powder (SIGMA@) was subjected to solubilization in buffer containing tris (0.02M, pH 7.4); NaCl (0.15M); octyl-β-glucoside (1%); and protease inhibitors (PMSF and aprotinin). After serial chromatography onto SP sepharose (Pharmacia LKB®), and affi-gel 10 resin (BIO-RAD®) to which had been adsorbed purified soluble human RAGE (prepared from a baculovirus expression system), RAGE-binding proteins were identified based on a screening assay employing immobilized column fraction (Nunc Maxisorp dishes) (NUNC®) and ^125-I-labelled sRAGE as above. After elution with heparin-containing buffer (1 mg/ml), positive fractions were identified. RAGE-binding proteins were subjected to sequence analysis.

[7] = molecular target: T1, purified soluble human RAGE (sRAGE), …; test: radioligand binding, 125-I EN-RAGE ± 50-fold unlabelled EN-RAGE on immobilised human sRAGE
Procedure: Radioligand binding assays were performed employing the indicated concentration of ^125-I EN-RAGE in the presence or absence of excess unlabelled EN-RAGE (50-fold). […] Where indicated, radiolabelled EN-RAGE (100 nM) was incubated with the indicated amount of excess sRAGE two hours prior to binding assay, or wells were preincubated for two hours with the indicated concentration of rabbit nonimmune IgG, or polyclonal monospecific rabbit anti-EN-RAGE IgG or anti-RAGE IgG prior to binding assay and results reported as % maximal specific binding±SD of the mean. These experiments were performed at least five times with analogous results.
Purified EN-RAGE was radiolabelled using ^125-I and Iodobeads (Pierce) to a specific activity of approximately 5,000 cpm/ng. Radioligand binding assays were performed in 96-well dishes to which had been adsorbed either purified human RAGE (5 µg/well) or bovine aortic endothelial cells. In the former case, after adsorption of human soluble RAGE to the plastic dish in carbonate/bicarbonate buffer (pH 9.3) overnight, wells were then washed with PBS containing Tween 20 (0.05%). Unoccupied binding sites on the plastic wells were blocked by incubation with PBS containing calcium/magnesium and bovine serum albumin (1%) for two hours at 37° C. […] Solution was then aspirated from the wells and counted in a gamma counter (LKB, Gaithersburg, Md.). […]

[8] = molecular target: T2, RAGE on cultured bovine aortic endothelial cells (BAEC RAGE) (bovine, UniProt Q28173 23-416); test: radioligand binding on cultured bovine aortic endothelial cells
T2 construct: whole, on cells; also called BAECs; endothelial (EC) RAGE
T2 sequence (looked up): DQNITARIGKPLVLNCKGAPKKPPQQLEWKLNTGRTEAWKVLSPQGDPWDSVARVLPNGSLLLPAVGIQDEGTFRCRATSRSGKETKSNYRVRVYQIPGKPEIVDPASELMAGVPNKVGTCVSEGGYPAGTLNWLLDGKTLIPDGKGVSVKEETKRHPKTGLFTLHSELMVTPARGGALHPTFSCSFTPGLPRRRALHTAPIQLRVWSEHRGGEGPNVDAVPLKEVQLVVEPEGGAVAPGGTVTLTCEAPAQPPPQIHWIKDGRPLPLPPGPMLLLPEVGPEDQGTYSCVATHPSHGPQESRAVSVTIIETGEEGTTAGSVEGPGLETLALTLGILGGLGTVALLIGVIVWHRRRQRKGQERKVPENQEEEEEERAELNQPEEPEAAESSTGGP
Procedure: These experiments were performed at least five times with analogous results.
Purified EN-RAGE was radiolabelled using ^125-I and Iodobeads (Pierce) to a specific activity of approximately 5,000 cpm/ng. Radioligand binding assays were performed in 96-well dishes to which had been adsorbed either purified human RAGE (5 µg/well) or bovine aortic endothelial cells. In the former case, after adsorption of human soluble RAGE to the plastic dish in carbonate/bicarbonate buffer (pH 9.3) overnight, wells were then washed with PBS containing Tween 20 (0.05%). Unoccupied binding sites on the plastic wells were blocked by incubation with PBS containing calcium/magnesium and bovine serum albumin (1%) for two hours at 37° C. […] Solution was then aspirated from the wells and counted in a gamma counter (LKB, Gaithersburg, Md.). […] Equilibrium binding data were analyzed according to the equation of Klotz and Hunston (Klotz and Hunston, 1984): B=nKA/1+KA, where B=specifically bound ligand (total binding, wells incubated with tracer alone, minus nonspecific binding, wells incubated with tracer in the presence of excess unlabelled material), n=sites/cell, K=the […] constant, and A=free ligand concentration) using nonlinear least-squares analysis (Prism; San Diego, Calif.). […]

T1 sequence (Q15109 23-342): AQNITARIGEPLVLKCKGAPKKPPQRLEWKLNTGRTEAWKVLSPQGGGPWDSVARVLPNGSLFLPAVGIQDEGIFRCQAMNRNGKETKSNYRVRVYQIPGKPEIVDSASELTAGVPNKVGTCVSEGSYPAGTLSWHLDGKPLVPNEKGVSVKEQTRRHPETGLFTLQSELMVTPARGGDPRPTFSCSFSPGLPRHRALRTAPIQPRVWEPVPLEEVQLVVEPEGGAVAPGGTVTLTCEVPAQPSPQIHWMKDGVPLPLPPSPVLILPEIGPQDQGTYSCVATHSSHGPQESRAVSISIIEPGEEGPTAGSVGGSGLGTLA
Sequence of cellular RAGE on human cells (HUVEC, Molt-4 cells, PBMC, Jurkat cells) (human) (Q15109 23-404): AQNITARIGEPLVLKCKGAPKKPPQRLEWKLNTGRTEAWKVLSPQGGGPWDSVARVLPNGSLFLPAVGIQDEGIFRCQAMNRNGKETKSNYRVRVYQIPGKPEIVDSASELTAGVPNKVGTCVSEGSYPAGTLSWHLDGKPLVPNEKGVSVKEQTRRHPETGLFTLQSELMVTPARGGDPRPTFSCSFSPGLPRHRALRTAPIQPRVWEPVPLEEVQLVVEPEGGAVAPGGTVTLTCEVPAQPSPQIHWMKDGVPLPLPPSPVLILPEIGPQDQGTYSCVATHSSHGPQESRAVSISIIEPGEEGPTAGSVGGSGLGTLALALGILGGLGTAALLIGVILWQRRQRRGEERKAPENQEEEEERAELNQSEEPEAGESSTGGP
Sequence of cellular RAGE on human cells (HUVEC, Molt-4 cells, PBMC, Jurkat cells) (Q15109 23-404): as above
Sequence of purified soluble human RAGE (sRAGE), prepared from a baculovirus expression system (human) (Q15109 23-342): as the sequence (Q15109 23-342) above
Sequence of RAGE on macrophages / macrophage-like cultured BV2 cells (MP RAGE) (Q62151 23-402 limits assumed): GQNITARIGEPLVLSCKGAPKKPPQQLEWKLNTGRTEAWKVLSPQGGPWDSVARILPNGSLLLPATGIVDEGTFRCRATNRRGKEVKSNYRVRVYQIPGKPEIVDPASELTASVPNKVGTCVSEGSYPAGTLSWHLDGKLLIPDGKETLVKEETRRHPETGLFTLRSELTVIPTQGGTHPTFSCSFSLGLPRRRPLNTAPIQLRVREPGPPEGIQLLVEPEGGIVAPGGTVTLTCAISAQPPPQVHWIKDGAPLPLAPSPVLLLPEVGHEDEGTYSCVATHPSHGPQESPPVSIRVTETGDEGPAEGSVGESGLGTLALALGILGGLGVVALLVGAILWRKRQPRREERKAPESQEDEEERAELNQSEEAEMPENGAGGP

Molecule: ≈12 kDa RAGE-binding polypeptide isolated and purified from bovine lung extract, called EN-RAGE (from UniProt P79105 2-51) (ligand)
- adhesion of Molt-4 cells to cultured ECs [1]: 7 fold
- expression of cell-surface VCAM-1 on cultured ECs [1]: 4.3 fold
- Kd [2]: 75 nM
- Kd [3]: 75 nM
- Kd [4]: 75 nM

B1: purified S100B from human brain (Calbiochem-Novabiochem) (ligand, UniProt P04271 2-92, looked up)
chain: SELEKAMVALIDVFHQYSGREGDKHKLKKSELKELINNELSHFLEEIKEQEVVDKVMETLDNDGDGECDFQEFMAFVAMVTTACHEFFEHE
- nuclear translocation of NF-kB in HUVEC (EMSA) [5]: ~13.9 fold

B2: ≈23 kDa polypeptide from bovine lung extract, identified as amphoterin (ligand, UniProt P10103 2-215, looked up)
chain: GKGDPKKPRGKMSSYAFFVQTCREEHKKKHPDASVNFSEFSKKCSERWKTMSAKEKGKFEDMAKADKARYEREMKTYIPPKGETKKKFKDPNAPKRPPSAFFLFCSEYRPKIKGEHPGLSIGDVAKKLGEMWNNTAADDKQPYEKKAAKLKEKYEKDIAAYRAKGKPDAAKKGVVKAEKSKKKKEEEEDEEDEEDEEEEEDEEDEEEEEDDDDE
notes: The identification is cited to Hori et al., 1995
- binding result [6]: binds

B3: recombinant bovine EN-RAGE (Extracellular Novel RAGE binding protein), expressed in Sf9 cells from a baculovirus system (ligand)
chain: TKLEDHLEGIINIFHQYSVRVGHFDTLNKRELKQLITKELPKTLQNTKDQPTIDKIFQDLDADKDGAVSFEEFVVLVSRVLKTAHIDIHK
modifications: radiolabelled with 125-I (Iodobeads) in the radioligand binding assays; unlabelled in the cell activation assays
notes: also called 125-I EN-RAGE; radiolabelled EN-RAGE
- nuclear NF-kB in HUVEC (EMSA, densitometry) [5]: 5 fold
- Kd [7]: ~91 nM
- Kd [8]: ~90.3 nM
